The target in the series is T1, SFVmac PR-RT WT (Simian foamy virus from macaques …, UniProt P23074 1-751).
T1 sequence: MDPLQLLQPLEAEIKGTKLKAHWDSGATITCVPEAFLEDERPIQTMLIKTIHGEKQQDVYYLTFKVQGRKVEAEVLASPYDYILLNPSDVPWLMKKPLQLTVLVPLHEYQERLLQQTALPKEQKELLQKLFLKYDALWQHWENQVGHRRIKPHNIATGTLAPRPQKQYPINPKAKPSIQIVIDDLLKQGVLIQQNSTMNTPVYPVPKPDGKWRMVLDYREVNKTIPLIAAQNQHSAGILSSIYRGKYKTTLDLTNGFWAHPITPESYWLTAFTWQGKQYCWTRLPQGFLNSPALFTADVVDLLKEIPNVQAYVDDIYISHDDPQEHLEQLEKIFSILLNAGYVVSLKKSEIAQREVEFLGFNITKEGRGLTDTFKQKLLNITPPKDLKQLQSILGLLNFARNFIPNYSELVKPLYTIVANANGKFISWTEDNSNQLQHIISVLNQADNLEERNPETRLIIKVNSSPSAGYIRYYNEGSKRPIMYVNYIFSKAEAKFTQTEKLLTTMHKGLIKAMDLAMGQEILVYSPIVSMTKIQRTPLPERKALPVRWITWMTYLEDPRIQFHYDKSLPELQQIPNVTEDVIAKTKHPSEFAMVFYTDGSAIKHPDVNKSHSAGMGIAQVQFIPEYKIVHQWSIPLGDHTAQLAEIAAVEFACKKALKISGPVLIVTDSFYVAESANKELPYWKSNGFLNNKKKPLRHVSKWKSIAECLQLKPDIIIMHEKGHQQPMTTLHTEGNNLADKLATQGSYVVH
Description: fluorescence anisotropy; Fluorescence equilibrium titration, 5 nM DNA, 25 C; buffer, salt and pH not given in the material (refs 14, 43). As to conditions: protein: recombinant; label: 5' DY647 on template (S6); 24 bp; template 5' overhang 5 nt and 3' overhang 11 nt.

B1: 24/40-mer DNA/DNA primer/template (dsDNA)
DNA 1: CTAATTCCGCTTTCCCCTCTCCTGGTGATCCTTTCCATCC
DNA 2: ATCACCAGGAGAGGGGAAAGCGGA
A word on the Kd: it is the concentration at which binding is half-saturated. With B1, the Kd is 9.6 ± 0.7 nM.
